Test results published in patent US20260193376A1.

Key:
[1] = target: human plasma-derived Factor IXa (human) (UniProt P00740); assay: cell-based or functional assay
[2] = target: human plasma-derived Factor IXa (human) (UniProt P00740); assay: FXa generation assay at eight OA antibody concentrations, fit to the quadratic binding equation
[3] = target: human coagulation Factor IX (human) (UniProt P00740); assay: ITC, 37 °C, pH 7.4, antibody injected into FIX
[4] = target: human coagulation Factor X (human) (UniProt P00742); assay: ITC, 37 °C, pH 7.4, antibody injected into FX
Chain of human coagulation Factor X (human) (P00742 41-179, chain 1 of 2): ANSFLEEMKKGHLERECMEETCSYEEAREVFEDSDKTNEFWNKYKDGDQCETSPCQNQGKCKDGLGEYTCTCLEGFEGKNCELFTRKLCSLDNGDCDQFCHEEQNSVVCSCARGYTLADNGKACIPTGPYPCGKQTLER
Chain of human coagulation Factor X (human) (P00742 183-488, chain 2 of 2): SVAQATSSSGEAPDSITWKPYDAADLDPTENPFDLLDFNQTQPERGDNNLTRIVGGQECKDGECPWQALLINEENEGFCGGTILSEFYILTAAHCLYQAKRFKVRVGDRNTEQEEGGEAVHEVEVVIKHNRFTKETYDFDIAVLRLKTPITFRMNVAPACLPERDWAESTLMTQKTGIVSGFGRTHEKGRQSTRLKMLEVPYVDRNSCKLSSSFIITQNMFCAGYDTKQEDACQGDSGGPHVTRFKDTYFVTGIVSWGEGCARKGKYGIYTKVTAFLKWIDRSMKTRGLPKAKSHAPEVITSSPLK

[5] = target: human plasma-derived Factor IXa (human) (UniProt P00740); assay: ITC, 37 °C, pH 7.4, antibody injected into FIXa

Chain of human plasma-derived Factor IXa (human) (P00740 47-191, chain 1 of 2): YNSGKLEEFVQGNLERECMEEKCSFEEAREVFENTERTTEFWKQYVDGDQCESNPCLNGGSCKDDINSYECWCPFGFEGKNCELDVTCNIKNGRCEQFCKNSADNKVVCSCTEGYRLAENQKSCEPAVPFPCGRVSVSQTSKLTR
Chain of human plasma-derived Factor IXa (human) (P00740 227-461, chain 2 of 2): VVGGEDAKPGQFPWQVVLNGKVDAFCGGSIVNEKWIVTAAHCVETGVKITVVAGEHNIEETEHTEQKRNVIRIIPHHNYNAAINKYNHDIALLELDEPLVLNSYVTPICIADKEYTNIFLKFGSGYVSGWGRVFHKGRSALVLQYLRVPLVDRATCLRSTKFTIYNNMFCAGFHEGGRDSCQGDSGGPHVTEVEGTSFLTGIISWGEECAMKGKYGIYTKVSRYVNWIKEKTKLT
Chain of human coagulation Factor IX (human) (P00740 47-461 T194A limits assumed): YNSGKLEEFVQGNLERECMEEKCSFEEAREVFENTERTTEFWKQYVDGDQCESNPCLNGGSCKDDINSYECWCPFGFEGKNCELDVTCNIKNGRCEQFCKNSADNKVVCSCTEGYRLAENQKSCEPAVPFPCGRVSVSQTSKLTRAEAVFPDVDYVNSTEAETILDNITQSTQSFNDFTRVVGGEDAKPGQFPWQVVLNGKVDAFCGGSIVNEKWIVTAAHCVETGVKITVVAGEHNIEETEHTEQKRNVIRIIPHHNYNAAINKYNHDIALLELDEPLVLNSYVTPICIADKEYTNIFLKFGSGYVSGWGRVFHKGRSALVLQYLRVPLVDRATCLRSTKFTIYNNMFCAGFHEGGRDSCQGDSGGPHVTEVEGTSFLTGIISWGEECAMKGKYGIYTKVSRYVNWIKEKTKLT

Stimulation Index, FXa generation assay, estimated at full FIXa saturation [1] [fold]	Kd [2] [nM]	Maximum stimulation (fold), FXa generation assay with bispecific antibody; maximum at 10480 nM [1] [fold]	Kd [3] [nM]	Kd [4] [nM]	Kd [5] [nM]	Substance
1370	1100	–	–	–	–	one-armed (OA) ACE910 anti-FIXa antibody
–	–	891	2770	2420	1970	ACE910 (bispecific antibody)
